Results published in US20250195685A1 (CAPSTAN THERAPEUTICS, published 2025).

How the values were obtained:
[1] = target: T1, cynomolgus macaque CD8αα homodimer, recombinant protein (cynomolgus macaque); test: BLI kinetic sensorgram, 1:1 global fit (legend: 30 °C; FIG. 2I prints 37 °C for the same constants)
T1 construct: also called cynomolgus CD8αα homodimer
Experimental: (§1) Biolayer interferometry kinetic assays were performed using a GatorBio Gator Plus BLI system. Kinetic buffer containing PBS plus 0.1% Tween 20 and 0.2% BSA was used for calculating the baseline. To measure the binding kinetics of anti-CD8α antibody fragment (Fab), streptavidin-immobilized SA-XT sensors (#160029, Gator Bio) were prehydrated in the kinetic buffer and loaded with […] biotinylated CD8α recombinant protein (CDA-H82E3, Acro Biosystems) at a spin speed of 400 rpm to a threshold response of 10 nm. The sensors were then incubated in the kinetic buffer for 300 s to acquire a baseline measurement prior to each association. […] The antigen-loaded sensors were incubated in the diluted solutions to capture Fab fragments for 300 s to record the association phase. Sensors were finally incubated in the kinetic buffer for 900 s to record the dissociation phase. The spin speed for all steps except the antigen loading step was 1000 rpm. The temperature of the performed assays was either 30° C. or 37° C. during the association and dissociation phases. Sensor data were baseline subtracted, and global curve fitting of the kinetic data from six different analyte concentrations at a 1:1 monovalent binding model was performed using GatorOne software (version v2.10) to determine kinetic rate constants (kₒₙ and koff) and equilibrium dissociation constants (KD) of the analyzed antibodies.
(§2) The binding kinetics of CBD1033 Fab and its parental CBD1017ch Fab against human CD8αα homodimer, human CD8αβ heterodimer, and cynomolgus macaque CD8ααhomodimer were assessed following the same method in BLI evaluation of humanized Fab variants. For evaluating the binding kinetics against cynomolgus macaque CD8αβ heterodimer protein, the antigen protein was directly coupled onto amine-reactive biosensor tips (Gator Bio) following the manufacturer protocol. Briefly, the sensors were activated for 300 s with a mixture of 1-ethyl-3-(3-dimethylaminopropyl)carbodiimide hydrochloride (EDC) (ThermoFisher Scientific) and 10 mM N-Hydroxysulfosuccinimide sodium salt (sulfo-NHS) (Sigma-Aldrich) in water.

[2] = target: T2, human CD8αα homodimer, recombinant protein (Acro Biosystems) (human, UniProt P01732 22-182); test: BLI kinetic rate analysis, Fab fragment (temperature not given)
T2 construct: also called CD8αα antigen; biotinylated CD8α recombinant protein (CDA-H82E3)
Experimental: as §1

[3] = target: T2, human CD8αα homodimer, recombinant …; test: BLI kinetic sensorgram, 1:1 global fit, 30 °C
Experimental: (§3) The global fitting was performed with a 1:1 fitting model using GatorOne software as described below.
as §1

[4] = target: T2, human CD8αα homodimer, recombinant …; test: BLI kinetics, F(ab) on biotinylated CD8α (SA-XT sensor), 1:1 fit, 30 °C
Experimental: as §1

[5] = target: T3, cynomolgus macaque CD8αβ heterodimer, recombinant protein (cynomolgus macaque); test: BLI kinetics, Fab, antigen amine-coupled to the sensor, 30 °C
T3 construct: In BLI coupled directly to amine-reactive sensor tips; also called cynomolgus CD8αβ heterodimer
Experimental: The binding kinetics of CBD1033 Fab and its parental CBD1017ch Fab against human CD8αα homodimer, human CD8αβ heterodimer, and cynomolgus macaque CD8ααhomodimer were assessed following the same method in BLI evaluation of humanized Fab variants. For evaluating the binding kinetics against cynomolgus macaque CD8αβ heterodimer protein, the antigen protein was directly coupled onto amine-reactive biosensor tips (Gator Bio) following the manufacturer protocol. Briefly, the sensors were activated for 300 s with a mixture of 1-ethyl-3-(3-dimethylaminopropyl)carbodiimide hydrochloride (EDC) (ThermoFisher Scientific) and 10 mM N-Hydroxysulfosuccinimide sodium salt (sulfo-NHS) (Sigma-Aldrich) in water. The cynomolgus macaque CD8αβ protein diluted to […] in 10 mM sodium acetate buffer, pH 6.0, was allowed to be covalently captured for 300 s to an approximate threshold of 5 nm, and the sensors were subsequently deactivated with 1 M ethanolamine (ETA) (Sigma-Aldrich) solution, pH 8.5, for 300 s. The sensors were then rinsed in the kinetic buffer for 600 s. The rinse step was repeated for an additional 120 s for baseline calculation prior to the measurements of the binding kinetics. The antibody fragment was diluted into kinetic buffer via 3-fold dilution at concentrations ranging from 1000 nM to 1.37 nM. As above, the antigen-captured sensors were incubated in the diluted solutions to capture the Fab fragments for 1200 s to record the association phase. Sensors were subsequently incubated in the kinetic buffer for 1200 s to record the dissociation phase. The shaking speed for all steps was 1000 rpm and the temperature of the performed assays were at 30° C. The kinetic parameters were determined with 1:1 monovalent (Langmuir) binding model using the previous method.

[6] = target: T1, cynomolgus macaque CD8αα homodimer, …; test: BLI kinetics, Fab, 37 °C as printed in the table
Experimental: as §1, §2

[7] = target: T4, human CD8αβ heterodimer, recombinant protein (human, UniProt P01732 22-182; P10966 22-170, limits assumed); test: BLI kinetic assay (told in the description; antigen not given)
Experimental: as §1, §2

[8] = target: T1, cynomolgus macaque CD8αα homodimer, …; test: as above
Experimental: as §1, §2

[9] = target: T3, cynomolgus macaque CD8αβ heterodimer, …; test: as above
Experimental: as §1, §2

[10] = target: T2, human CD8αα homodimer, recombinant …; test: as above
Experimental: as §1, §2

[11] = target: T2, human CD8αα homodimer, recombinant …; test: BLI kinetic sensorgram, 1:1 global fit, 37 °C [CONT'ED]
Experimental: as §3, §1

[12] = target: T4, human CD8αβ heterodimer, recombinant …; test: BLI kinetics, Fab, 37 °C
Experimental: as §1, §2

[13] = target: T2, human CD8αα homodimer, recombinant …; test: BLI kinetics, Fab, 37 °C
Experimental: as §1, §2

[14] = target: T2, human CD8αα homodimer, recombinant …; test: BLI kinetics, F(ab) on biotinylated CD8α (SA-XT sensor), 1:1 fit, 37 °C [CONT'ED]
Experimental: as §1

T4 sequence (P01732 22-182 limits assumed, chain 1 of 2): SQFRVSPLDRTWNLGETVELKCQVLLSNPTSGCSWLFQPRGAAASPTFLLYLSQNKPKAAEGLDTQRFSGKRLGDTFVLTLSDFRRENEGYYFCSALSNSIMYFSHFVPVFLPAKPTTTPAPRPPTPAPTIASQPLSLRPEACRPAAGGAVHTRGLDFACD
T4 sequence (P10966 22-170 limits assumed, chain 2 of 2): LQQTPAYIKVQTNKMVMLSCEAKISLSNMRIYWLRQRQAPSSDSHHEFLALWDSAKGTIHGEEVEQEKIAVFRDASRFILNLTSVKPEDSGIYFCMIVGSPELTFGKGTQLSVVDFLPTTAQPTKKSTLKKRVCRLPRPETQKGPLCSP
T2 sequence (P01732 22-182 limits assumed): as the sequence (P01732 22-182 limits assumed, chain 1 of 2) above

B1: CBD1033 Fab (h1017-H2 / h1017-L2) (Fab, V domains shown)
VH: QVQLVQSGAEVKKPGASVKVSCKASRYTFTDYNLHWVRQAPGQGLEWMGFIYPYNGGTGYAQKFQGRVTMTVDTSTSTAYMELSSLRSEDTAVYYCARDHRYNEGVSFDYWGQGTTVTVSS
VL: DIQLTQSPSSLSASVGDRATITCRASESVDGFGNSFMNWYQQKPGKAPKLLIYLASNLESGVPSRFSGSGSGTDFTLTISSVQPEDFATYYCQQNNEDPYTFGQGTKLEIK
notes: Expressed as F(ab) fragment; also called CBD1033 Fab molecule
- Kd [1]: 10.4 nM
- koff [1]: 0.000264 s⁻¹
- kon [1]: 25400 M⁻¹ s⁻¹
- Kd [2]: 5.5 nM
- koff [2]: 0.000195 s⁻¹
- kon [2]: 35400 M⁻¹ s⁻¹
- Kd [3]: 3.25 nM
- koff [3]: 0.000145 s⁻¹
- kon [3]: 44700 M⁻¹ s⁻¹
- Kd [4]: 3.25 nM
- koff [4]: 0.000145 s⁻¹
- kon [4]: 44700 M⁻¹ s⁻¹
- Kd [5]: 119 nM
- koff [5]: 0.00199 s⁻¹
- kon [5]: 16700 M⁻¹ s⁻¹
- Kd [6]: 10.4 nM
- koff [6]: 0.000264 s⁻¹
- kon [6]: 25400 M⁻¹ s⁻¹
- fold weaker binding affinity than CBD1017ch F(ab) [7]: 5 fold
- fold weaker binding affinity than CBD1017ch F(ab) [8]: 5 fold
- fold weaker binding affinity than CBD1017ch F(ab) [9]: 5 fold
- fold weaker binding affinity than CBD1017ch F(ab) [10]: 5 fold
- Kd [11]: 5.5 nM
- koff [11]: 0.000194 s⁻¹
- kon [11]: 35400 M⁻¹ s⁻¹
- Kd [12]: 26.2 nM
- koff [12]: 0.000653 s⁻¹
- kon [12]: 25000 M⁻¹ s⁻¹
- Kd [13]: 5.5 nM
- koff [13]: 0.000194 s⁻¹
- kon [13]: 35400 M⁻¹ s⁻¹
- Kd [14]: 5.5 nM
- koff [14]: 0.000194 s⁻¹
- kon [14]: 35400 M⁻¹ s⁻¹
